Measurements taken from the domain aggregation screens of Martell et al. (2025).

Experiment: soluble fraction after stress (log2 fold change); higher = more stays soluble; pooled small domains, quantitative proteomics
Conditions: stress: 75 degC
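Also: 20 min heating vs room temperature control held 20 min.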

Sequence | soluble fraction (log2)
HMAEPYDERKVMEQMIPKGKNTIVAHLGHLKDHGETGYLQEALSYLRERESELGFDLKEVRALVHN | 0.365
HMNMLGSNIKYLRNRHKLSQQELSEKLGVPRSSLSDYERGHTQVGLDSLIKLADIFDVKIDDLLRSNLSHR | -0.439
HMAVRTELLALPAGWHGDASRLSTALAALQGVREAVVIASEGVAYLKVHGHDWDRDGARELLQN | -1.12
HMTDVIADMLTRIRNAASSKHQTVDIPSSNLKKEIAKILLEEGYIRDFIEIDDKKQGIIRITL | -0.692
HMNNILNYTIAELMEILKIDDLETENVINSSNNLINKSINENNFPLAEFYEDVKNNLIEFIETFDS | -0.771
HMLRISLAAARVNAEMTQEDVAREMHVSKNTVVNWEKGKSEPTISQSRELSKLYNMPLEYIFYL | -2.68
HMEVVVPDFEKIYIRDLDKFVEGHNVRYEIVDSIYNLEKDKGTVVDQDPEPGSKVKHGRVIYLTVNAML | -0.231
HMKLFGTPGSPFARKVRIVLEEKRIPHEYIIERGSAPGSRVPQYNPLGKVPTLVLDDGRGLYDSPVIVEYL | -0.531
HMGVISRVITFWQNGFTVDDGPLRAFDDPANMAFMESIGRGEAPAELAPKTRTQRVNINLVQRHEPYSAPK | -0.147
HMGRMSLDEAKAVILPIGEHKGHTMGEVLAIKPGLIDFYASQKFNSGKYPYLKEAAQVILENQG | -0.0288
HMTKTKFLSKDMILSAMSRTKSNRAAARYLSVSFVHYKKYAREYKDETSGVSLWEKHKNQSGTGIPK | -2.11
HMAGATDTVRNLLERQIREGELLPGQRLPTEPELAARLGVSRNSLREALQSLEDSGLIVKRHGIGTFVTE | 0.0985
HMQYDALVLNLLQEKNLTSESLKDAQRAFAKSHNLSTLPSKSQILQAYFQLLEQGKIEKNPDFELLL | -0.394
HMELPMGTQLPPERELAQQMQVSRAVVNGGLAELAQQGFLEVRPRQGTFVADYRRKGNLSTLIAIMEY | 0.257
HMDTDVFLMDLRGESRDYAEEVLINNNLEVKVIILPFSKRHYPGKVVEMRPSPFTKVKKGRIITLSVAGN | -3.73
HMPQNLQDQLFELILSRYPRRADAVEDLANILHLGKDPVYRRLRGDTFLSPLEISTLALHFRISLDALIV | -2.5
HMAFGTGTVTASSLRVREDASTSAATLDTLSKGSKVSVLADEQDGFYKVQIGEQVGYMSAEYLDVTE | 0.00175
HMKPGWEDIFRMNQIQLEDAVRTVNRDDTLAPTKKAYLIQNLLASRWIVGNQLQAQKDKTTE | -0.126
HMKDLTAIKGVGEFFAKKLSQAGYQSITNLTDVNAKRLQADTGIPLPIAARIIKEAQSLIAET | 0.157
HMVNDQSIYASEGYVHIRSGKPVSLRIYTILGALYRHEERLVGDHVIALPRGLYIVVLNHTAKKIMV | -0.657
HMAVKNAQIDVQQFFYSKSGEVDFGRKIKAIQSHFTPERLQSFTAAVPPSQWVSQLQVMWDSL | -2.12
HMASENISYSQFINQVKNSMVESVSIEADGKTISGKYKSGSSFVTYGLNDPKLVDDLLSNNVEIL | 0.143
HMDTIVHFLSDGRRITVRIKRNARKNIILRPMAADAVSATIPPWLGRRQLSAWLSEREDLLLSVLSRAA | -3.34
HMTARYQQVEDYIVRRIQDGSWPPGHRLPSEHELVQQFGMSRMTVNRALRDLMQKGRIVRVAGVGSFVAQD | -1.98
HMDYRSMSGLQKAALLIMSVGEETAAKLFQLMHDDEIREISQTMANLGTVNATVIERLFVEFADAISS | -1.1
HMKKVIKIEENVSLQKLAALMSLKVTDVLMRLLSMGMSGVNINSTIDADTAKILASEFGWTVED | -0.529
HMTANTLDLTYSQFLENVKNGSVNDVTIRGNNVSGNFSDGRKFKTYAVNDPTLVEKLTKMGVNISAAPL | 0.405
HMDRSRAEIDLGHVETAIRTLAEGGMVQEYAIGGRSLKRYKMGELLQLKAELENEINMERRKEKMRQ | 0.212
HMAEQVLHQKLAARRKELNSLVAQVARVRGIPHSHVHSGLRREAGGPPLAQATTDQVEARISLARKWLRA | -1.47
HMDNPPDRAEIEQMLKDAGLTPEADAMAALSDLARTLDPGDFRQTLEKITLYKLGDSTPIGLDDIAAGAP | 0.0465
